Key:
[1] = biological target: NanoLuc-VEGFR2 (UniProt P35968); experiment: FRET or BRET; NanoBRET kinetics: live HEK293T cells with NanoLuc receptor, furimazine 5 min before 1-20 nM fluorescent VEGF, read every 30 s at 37°C; global fit of five concentrations; KD as koff/kon
[2] = biological target: VEGF121a-TMR; experiment: fluorescence SDS-PAGE with and without DTT; purified VEGF-TMR isoforms in the presence or absence of 100 mM DTT; dimer in non-reducing conditions
[3] = biological target: NanoLuc-VEGFR2 (UniProt P35968); experiment: FRET or BRET; NanoBRET saturation: live HEK293T cells stably expressing the N-terminal NanoLuc receptor; increasing fluorescent VEGF with or without 100 nM unlabelled VEGF; 60 min, 37°C, HBSS/0.1% BSA
[4] = biological target: NanoLuc-NRP1 (UniProt O14786); experiment: FRET or BRET; NanoBRET full displacement: live HEK293T cells with NanoLuc receptor; increasing unlabelled VEGF (R&D Systems) added together with five fixed concentrations of fluorescent VEGF; 60 min, 37°C, HBSS/0.1% BSA
Sequence of UniProt O14786 (O14786 22-923): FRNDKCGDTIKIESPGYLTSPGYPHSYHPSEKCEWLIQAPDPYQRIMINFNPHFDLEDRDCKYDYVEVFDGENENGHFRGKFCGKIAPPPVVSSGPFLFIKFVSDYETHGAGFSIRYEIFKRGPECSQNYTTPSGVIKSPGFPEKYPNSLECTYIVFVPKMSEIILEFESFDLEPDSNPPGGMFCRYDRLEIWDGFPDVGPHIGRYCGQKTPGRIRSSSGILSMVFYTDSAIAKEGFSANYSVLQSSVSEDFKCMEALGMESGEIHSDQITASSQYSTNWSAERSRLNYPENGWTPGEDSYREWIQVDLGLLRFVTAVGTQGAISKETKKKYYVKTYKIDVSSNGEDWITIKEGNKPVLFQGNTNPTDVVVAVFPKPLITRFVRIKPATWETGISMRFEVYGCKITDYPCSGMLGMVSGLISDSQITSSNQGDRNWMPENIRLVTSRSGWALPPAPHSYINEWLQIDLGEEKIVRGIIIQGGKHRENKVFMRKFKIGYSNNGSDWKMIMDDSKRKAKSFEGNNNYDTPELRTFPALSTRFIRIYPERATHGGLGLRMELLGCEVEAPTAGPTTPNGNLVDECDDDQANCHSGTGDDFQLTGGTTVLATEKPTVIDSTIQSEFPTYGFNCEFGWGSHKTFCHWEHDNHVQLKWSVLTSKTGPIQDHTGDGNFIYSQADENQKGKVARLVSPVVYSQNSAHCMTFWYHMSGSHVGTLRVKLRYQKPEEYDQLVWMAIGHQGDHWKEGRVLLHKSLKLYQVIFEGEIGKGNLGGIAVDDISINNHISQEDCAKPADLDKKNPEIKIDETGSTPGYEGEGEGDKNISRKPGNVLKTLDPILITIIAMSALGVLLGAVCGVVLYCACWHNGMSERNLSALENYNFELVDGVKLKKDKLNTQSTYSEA

[5] = biological target: NanoLuc-NRP1 (UniProt O14786); experiment: FRET or BRET; NanoBRET kinetics: live HEK293T cells with NanoLuc receptor, furimazine 5 min before 1-20 nM fluorescent VEGF, read every 30 s at 37°C; global fit of five concentrations; KD as koff/kon
[6] = biological target: NanoLuc-NRP1 (UniProt O14786); experiment: FRET or BRET; NanoBRET saturation: live HEK293T cells stably expressing the N-terminal NanoLuc receptor; increasing fluorescent VEGF with or without 100 nM unlabelled VEGF; 60 min, 37°C, HBSS/0.1% BSA
[7] = biological target: NanoLuc-VEGFR2 (UniProt P35968)
[8] = biological target: VEGF165b-TMR; experiment: fluorescence SDS-PAGE with and without DTT; purified VEGF-TMR isoforms in the presence or absence of 100 mM DTT; dimer in non-reducing conditions

Sequence of UniProt P35968 (P35968 20-1356): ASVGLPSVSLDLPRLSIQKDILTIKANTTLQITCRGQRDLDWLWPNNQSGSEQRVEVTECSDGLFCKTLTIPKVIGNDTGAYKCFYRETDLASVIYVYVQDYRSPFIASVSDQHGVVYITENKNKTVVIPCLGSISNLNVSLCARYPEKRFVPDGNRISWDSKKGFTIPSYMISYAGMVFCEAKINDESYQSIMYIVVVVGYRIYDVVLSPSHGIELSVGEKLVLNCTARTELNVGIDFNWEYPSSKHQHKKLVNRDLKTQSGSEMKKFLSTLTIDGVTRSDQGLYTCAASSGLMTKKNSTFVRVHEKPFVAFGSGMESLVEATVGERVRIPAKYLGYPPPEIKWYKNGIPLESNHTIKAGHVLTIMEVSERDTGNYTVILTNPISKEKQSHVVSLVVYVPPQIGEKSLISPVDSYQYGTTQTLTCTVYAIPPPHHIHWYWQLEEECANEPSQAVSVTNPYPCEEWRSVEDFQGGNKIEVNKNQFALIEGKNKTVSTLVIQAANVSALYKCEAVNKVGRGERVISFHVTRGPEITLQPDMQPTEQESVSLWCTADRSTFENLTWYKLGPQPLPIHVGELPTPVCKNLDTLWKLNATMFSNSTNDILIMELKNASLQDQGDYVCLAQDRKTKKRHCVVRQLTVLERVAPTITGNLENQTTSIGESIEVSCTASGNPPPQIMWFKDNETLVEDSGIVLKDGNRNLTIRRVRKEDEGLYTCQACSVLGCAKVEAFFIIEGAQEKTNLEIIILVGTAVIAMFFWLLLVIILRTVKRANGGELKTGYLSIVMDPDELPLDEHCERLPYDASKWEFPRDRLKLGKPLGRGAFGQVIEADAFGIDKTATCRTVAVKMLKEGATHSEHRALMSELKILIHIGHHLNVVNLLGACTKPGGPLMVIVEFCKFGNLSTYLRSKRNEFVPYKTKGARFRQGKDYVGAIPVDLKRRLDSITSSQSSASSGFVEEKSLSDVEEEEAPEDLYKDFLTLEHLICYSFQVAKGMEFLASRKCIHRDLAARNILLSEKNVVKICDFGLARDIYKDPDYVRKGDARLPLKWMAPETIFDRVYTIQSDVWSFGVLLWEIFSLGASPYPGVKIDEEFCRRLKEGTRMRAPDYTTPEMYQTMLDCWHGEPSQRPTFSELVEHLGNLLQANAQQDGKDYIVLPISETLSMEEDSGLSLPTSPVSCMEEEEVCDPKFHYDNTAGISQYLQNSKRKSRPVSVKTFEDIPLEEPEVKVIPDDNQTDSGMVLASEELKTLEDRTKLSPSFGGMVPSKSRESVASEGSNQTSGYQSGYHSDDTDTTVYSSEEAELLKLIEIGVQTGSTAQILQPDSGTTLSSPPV

Row | Kd [1] [nM] | koff [1] [s⁻¹] | kon [1] [M⁻¹ s⁻¹] | stoichiometry N [2] | Kd [3] [nM] | Ki [4] [nM] | pKi [4] | Kd [5] [nM] | koff [5] [s⁻¹] | kon [5] [M⁻¹ s⁻¹] | Kd [6] [nM] | Kd [4] [nM] | Substance | pEC50 of the NFAT reporter gene response, as told again in the discussion with another number [7] | stoichiometry N [8]
1 | 5.75 | 0.000833 | 142000 | 2 | 5.54 |  |  |  |  |  |  |  | VEGF121a-TMR (ligand) |  | 
2 |  |  |  |  |  | 0.1 | 9.54 |  |  |  |  |  | VEGF165a (ligand) |  | 
3 | 6.64 | 0.001 | 257000 |  | 2.03 |  |  | 4.95 | 0.00433 | 1.18e+06 | 4.41 | 1.11 | VEGF165a-TMR (ligand) |  | 

Row | Substance | Kd [1] [nM] | koff [1] [s⁻¹] | kon [1] [M⁻¹ s⁻¹] | stoichiometry N [2] | Kd [3] [nM] | Ki [4] [nM] | pKi [4] | Kd [5] [nM] | koff [5] [s⁻¹] | kon [5] [M⁻¹ s⁻¹] | Kd [6] [nM] | Kd [4] [nM] | pEC50 of the NFAT reporter gene response, as told again in the discussion with another number [7] | stoichiometry N [8]
4 | VEGF165b-TMR (ligand) | 11.3 | 0.001 | 122000 |  | 9.53 |  |  |  |  |  |  |  | 8.28 | 2

— PMC6200776
